The source of these data is IntAct's records for PubMed 19366670.

The target in the test is T1, asia_bpt4 asiA (UniProt P32267).
T1 sequence: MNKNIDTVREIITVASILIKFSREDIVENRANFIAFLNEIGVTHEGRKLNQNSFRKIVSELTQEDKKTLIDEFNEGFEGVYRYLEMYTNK

For the substance “DNA-directed RNA polymerase subunit beta (Escherichia coli (strain K12)) (from UniProt P0A8V2) G907K”, the “effect of a mutation on the interaction” value is reported as “decreasing interaction strength”.

Take “DNA-directed RNA polymerase subunit beta (Escherichia coli (strain K12)) (from UniProt P0A8V2) I905A;F906A”: the “effect of a mutation on the interaction” value is on record as “decreasing interaction strength”.
